Broadly, the Kd is the concentration at which binding is half-saturated. The IC50 is the concentration needed to halve the response being measured. Low readings indicate greater potency, high ones weaker potency.

“And” between values parts separate entries of the source, which are not always exact repeats. Identical values can stand only once. Like-named read-outs stand apart in the source and are kept apart here.

Kd and IC50 data for five molecules are collected here from US20150376271 (published 2015).

One experiment deals with T1, PDGF-BB (human, UniProt P01127).
T1 chain: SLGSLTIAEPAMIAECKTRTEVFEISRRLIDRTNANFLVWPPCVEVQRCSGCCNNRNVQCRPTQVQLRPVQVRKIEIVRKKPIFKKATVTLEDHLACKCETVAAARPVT
In words: SPR, 25C.

In experiment [1] the target is T2, VEGF121 (human, UniProt P15692).
T2 chain: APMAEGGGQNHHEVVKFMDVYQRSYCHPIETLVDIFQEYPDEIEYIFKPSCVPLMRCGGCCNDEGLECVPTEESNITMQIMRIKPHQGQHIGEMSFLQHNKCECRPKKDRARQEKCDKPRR
In words: SPR.

In experiment [2] the target is T2, VEGF121. In words: SPR.
In experiment [3] the target is T3, VEGFA-165 (human, UniProt P15692).
T3 chain: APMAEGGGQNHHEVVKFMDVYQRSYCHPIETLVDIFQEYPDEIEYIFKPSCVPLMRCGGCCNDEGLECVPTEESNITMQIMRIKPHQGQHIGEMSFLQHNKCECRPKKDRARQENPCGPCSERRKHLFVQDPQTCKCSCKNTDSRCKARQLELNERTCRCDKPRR
In words: competition.

Experiment [4] addresses T3, VEGFA-165. In words: SPR. On the technique in general: Surface plasmon resonance follows binding to a sensor surface in real time, without labels.
For experiment [5], the target named is T3, VEGFA-165. In words: competition.

B1: OG1321 (antibody)
chain 1: LVVTPPGPELVLNVSSTFVLTCSGSAPVVWERMSQEPPQEMAKAQDGTFSSVLTLTNLTGLDTGEYFCTHNDSRGLETDERKRLYIFVPDPTVGFLPNDAEELFIFLTEITEITIPCRVTDPQLVVTLHEKKGDVALPVPYDHQRGFSGIFEDRSYICKTTIGDREVDSDAYYVYRLQVSSINVSVNAVQTVVRQGENITLMCIVIGNEVVNFEWTYPRKESGRLVEPVTDFLLDMPYHIRSILHIPSAELEDSGTYTCNVTESVNDHQDEKAINITVVESGGGGGSGGGGSEVQLVESGGGLVQPGGSLRLSCAASGYDFTHYGMNWVRQAPGKGLEWVGWINTYTGEPTYAADFKRRFTFSLDTSKSTAYLQMNSLRAEDTAVYYCAKYPYYYGTSHWYFDVWGQGTLVTVSSASTKGPSVFPLAPSSKSTSGGTAALGCLVKDYFPEPVTVSWNSGALTSGVHTFPAVLQSSGLYSLSSVVTVPSSSLGTQTYICNVNHKPSNTKVDKKVEPKSCDKTHTCPPCPAPEAAGAPSVFLFPPKPKDTLMISRTPEVTCVVVDVSHEDPEVKFNWYVDGVEVHNAKTKPREEQYNSTYRVVSVLTVLHQDWLNGKEYKCKVSNKALPAPIEKTISKAKGQPREPQVYTLPPSREEMTKNQVSLTCLVKGFYPSDIAVEWESNGQPENNYKTTPPVLDSDGSFFLYSKLTVDKSRWQQGNVFSCSVMHEALHNHYTQKSLSCSPGK
chain 2: not shown
modifications: TAF443 protein, unconjugated
In the case of B1, the Kd with PDGF-BB was found to be 0.014 nM.

B2: TAF347 (antibody)
chain 1: LVVTPPGPELVLNVSSTFVLTCSGSAPVVWERMSQEPPQEMAKAQDGTFSSVLTLTNLTGLDTGEYFCTHNDSRGLETDERKRLYIFVPDPTVGFLPNDAEELFIFLTEITEITIPCRVTDPQLVVTLHEKKGDVALPVPYDHQRGFSGIFEDRSYICKTTIGDREVDSDAYYVYRLQVSSINVSVNAVQTVVRQGENITLMCIVIGNEVVNFEWTYPRKESGRLVEPVTDFLLDMPYHIRSILHIPSAELEDSGTYTCNVTESVNDHQDEKAINITVVESGGGGGSGGGGSEVQLVESGGGLVQPGGSLRLSCAASGYDFTHYGMNWVRQAPGKGLEWVGWINTYTGEPTYAADFKRRFTFSLDTSKSTAYLQMNSLRAEDTAVYYCAKYPYYYGTSHWYFDVWGQGTLVTVSSASTKGPSVFPLAPSSKSTSGGTAALGCLVKDYFPEPVTVSWNSGALTSGVHTFPAVLQSSGLYSLSSVVTVPSSSLGTQTYICNVNHKPSNTKVDKKVEPKSCDKTHTCPPCPAPEAAGAPSVFLFPPKPKDTLMISRTPEVTCVVVDVSHEDPEVKFNWYVDGVEVHNAKTKPREEQYNSTYRVVSVLTVLHQDWLNGKEYKCKVSNKALPAPIEKTISKAKGQPREPCVYTLPPSREEMTKNQVSLTCLVKGFYPSDIAVEWESNGQPENNYKTTPPVLDSDGSFFLYSKLTVDKSRWQQGNVFSCSVMHEALHNHYTQKSLSLSPGK
chain 2: not shown
Take B2: the equilibrium dissociation constant (Kd) is 0.28 nM and 0.182 nM in the experiment with VEGF121 [1]; 0.231 nM with VEGF121 [2].

B3: TAF443 (antibody)
chain 1: LVVTPPGPELVLNVSSTFVLTCSGSAPVVWERMSQEPPQEMAKAQDGTFSSVLTLTNLTGLDTGEYFCTHNDSRGLETDERKRLYIFVPDPTVGFLPNDAEELFIFLTEITEITIPCRVTDPQLVVTLHEKKGDVALPVPYDHQRGFSGIFEDRSYICKTTIGDREVDSDAYYVYRLQVSSINVSVNAVQTVVRQGENITLMCIVIGNEVVNFEWTYPRKESGRLVEPVTDFLLDMPYHIRSILHIPSAELEDSGTYTCNVTESVNDHQDEKAINITVVESGGGGGSGGGGSEVQLVESGGGLVQPGGSLRLSCAASGYDFTHYGMNWVRQAPGKGLEWVGWINTYTGEPTYAADFKRRFTFSLDTSKSTAYLQMNSLRAEDTAVYYCAKYPYYYGTSHWYFDVWGQGTLVTVSSASTKGPSVFPLAPSSKSTSGGTAALGCLVKDYFPEPVTVSWNSGALTSGVHTFPAVLQSSGLYSLSSVVTVPSSSLGTQTYICNVNHKPSNTKVDKKVEPKSCDKTHTCPPCPAPEAAGAPSVFLFPPKPKDTLMISRTPEVTCVVVDVSHEDPEVKFNWYVDGVEVHNAKTKPREEQYNSTYRVVSVLTVLHQDWLNGKEYKCKVSNKALPAPIEKTISKAKGQPREPQVYTLPPSREEMTKNQVSLTCLVKGFYPSDIAVEWESNGQPENNYKTTPPVLDSDGSFFLYSKLTVDKSRWQQGNVFSCSVMHEALHNHYTQKSLSCSPGK
chain 2: not shown
Turning to B3, the Kd was 0.23 nM and 0.219 nM with VEGF121 [1]; 0.225 nM with VEGF121 [2].

B4: OG1448 (antibody)
chain 1: LVVTPPGPELVLNVSSTFVLTCSGSAPVVWERMSQEPPQEMAKAQDGTFSSVLTLTNLTGLDTGEYFCTHNDSRGLETDERKRLYIFVPDPTVGFLPNDAEELFIFLTEITEITIPCRVTDPQLVVTLHEKKGDVALPVPYDHQRGFSGIFEDRSYICKTTIGDREVDSDAYYVYRLQVSSINVSVNAVQTVVRQGENITLMCIVIGNEVVNFEWTYPRKESGRLVEPVTDFLLDMPYHIRSILHIPSAELEDSGTYTCNVTESVNDHQDEKAINITVVESGGGGGSGGGGSEVQLVESGGGLVQPGGSLRLSCAASGYDFTHYGMNWVRQAPGKGLEWVGWINTYTGEPTYAADFKRRFTFSLDTSKSTAYLQMNSLRAEDTAVYYCAKYPYYYGTSHWYFDVWGQGTLVTVSSASTKGPSVFPLAPSSKSTSGGTAALGCLVKDYFPEPVTVSWNSGALTSGVHTFPAVLQSSGLYSLSSVVTVPSSSLGTQTYICNVNHKPSNTKVDKKVEPKSCDKTHTCPPCPAPEAAGAPSVFLFPPKPKDTLMISRTPEVTCVVVDVSHEDPEVKFNWYVDGVEVHNAKTKPREEQYNSTYRVVSVLTVLHQDWLNGKEYKCKVSNKALPAPIEKTISKAKGQPREPQVYTLPPSREEMTKNQVSLTCLVKGFYPSDIAVEWESNGQPENNYKTTPPVLDSDGSFFLYSKLTVDKSRWQQGNVFSCSVMHEALHNHYTQKSLSCSPGK
chain 2: not shown
Take B4: the IC50 in the experiment with VEGFA-165 [3] worked out at 10.1 nM; with VEGFA-165 [5], 8.5 nM. In the experiment with VEGFA-165 [4], this molecule registered a dissociation constant Kd of 0.0051 nM.

B5: OG1321 (antibody)
chain 1: LVVTPPGPELVLNVSSTFVLTCSGSAPVVWERMSQEPPQEMAKAQDGTFSSVLTLTNLTGLDTGEYFCTHNDSRGLETDERKRLYIFVPDPTVGFLPNDAEELFIFLTEITEITIPCRVTDPQLVVTLHEKKGDVALPVPYDHQRGFSGIFEDRSYICKTTIGDREVDSDAYYVYRLQVSSINVSVNAVQTVVRQGENITLMCIVIGNEVVNFEWTYPRKESGRLVEPVTDFLLDMPYHIRSILHIPSAELEDSGTYTCNVTESVNDHQDEKAINITVVESGGGGGSGGGGSEVQLVESGGGLVQPGGSLRLSCAASGYDFTHYGMNWVRQAPGKGLEWVGWINTYTGEPTYAADFKRRFTFSLDTSKSTAYLQMNSLRAEDTAVYYCAKYPYYYGTSHWYFDVWGQGTLVTVSSASTKGPSVFPLAPSSKSTSGGTAALGCLVKDYFPEPVTVSWNSGALTSGVHTFPAVLQSSGLYSLSSVVTVPSSSLGTQTYICNVNHKPSNTKVDKKVEPKSCDKTHTCPPCPAPEAAGAPSVFLFPPKPKDTLMISRTPEVTCVVVDVSHEDPEVKFNWYVDGVEVHNAKTKPREEQYNSTYRVVSVLTVLHQDWLNGKEYKCKVSNKALPAPIEKTISKAKGQPREPQVYTLPPSREEMTKNQVSLTCLVKGFYPSDIAVEWESNGQPENNYKTTPPVLDSDGSFFLYSKLTVDKSRWQQGNVFSCSVMHEALHNHYTQKSLSCSPGK
chain 2: not shown
Molecule B5 displayed a Kd with VEGFA-165 [4] of 0.0098 nM. The same molecule yielded an IC50 with VEGFA-165 [5] of 12.5 nM.
